According to patent publication US20220259593A1, “CONTROL OF MAMMALIAN GENE DOSAGE USING CRISPR” (The Regents of the University of California, priority 2019, published 2022):
Substitutions are numbered along the chain they refer to.

B1: cr418 (nucleic acid)
guide: GTTTAAGAGCTAAGCTGGAAACAGCATAGCAAGGTTAAATAAGGCTAGTCCGTTATCAACATGAAAATGTGGCACCGAGTCGGTGCT
modifications: listed as DNA, chemistry not fully specified
B2: cr496 (nucleic acid)
guide: B1 guide with G29A, G34T, G52T, A61T, T68A, T80A
modifications: listed as DNA, chemistry not fully specified
B3: cr680 (nucleic acid)
guide: B1 guide with G34T, G43C, C51G, A74T, T84A
modifications: listed as DNA, chemistry not fully specified
B4: cr305 (nucleic acid)
guide: B1 guide with A61T, T68A, A74C, T84G
modifications: listed as DNA, chemistry not fully specified
B5: cr711 (nucleic acid)
guide: B1 guide with A61T, T68A, G72C, C86G
modifications: listed as DNA, chemistry not fully specified
B6: cr030 (nucleic acid)
guide: B1 guide with T2C, A5T, G34T, A61T, T68A
modifications: listed as DNA, chemistry not fully specified
B7: cr922 (nucleic acid)
guide: B1 guide with A61T, T68A, C75A, G83T
modifications: listed as DNA, chemistry not fully specified
B8: cr958 (nucleic acid)
guide: B1 guide with G33C, G34T, A61T, T68A, C76T, G82A
modifications: listed as DNA, chemistry not fully specified
B9: cr085 (nucleic acid)
guide: B1 guide with A5T, A6T, G34T, A61T, T68A
modifications: listed as DNA, chemistry not fully specified
B10: cr700 (nucleic acid)
guide: B1 guide with G34T, A41T, A61T, T68A, A78C
modifications: listed as DNA, chemistry not fully specified
B11: cr961 (nucleic acid)
guide: B1 guide with G34T, A61T, T62C, A67G, T68A, G72C, C73A, G85T, C86G
modifications: listed as DNA, chemistry not fully specified
B12: cr633 (nucleic acid)
guide: B1 guide with A28G, G33T, G34T, A42C, A61T, T68A
modifications: listed as DNA, chemistry not fully specified
B13: cr986 (nucleic acid)
guide: B1 guide with G34T, T49G, A61T, T68A
modifications: listed as DNA, chemistry not fully specified
B14: cr946 (nucleic acid)
guide: B1 guide with G34T, G43C, C51G, A61T, T62G, A67C, T68A, A74G, T84C
modifications: listed as DNA, chemistry not fully specified
B15: cr043 (nucleic acid)
guide: B1 guide with T2G, A5T, G34T, A61T, T68A
modifications: listed as DNA, chemistry not fully specified
B16: cr950 (nucleic acid)
guide: B1 guide with A31T, T54G, A61T, T68A
modifications: listed as DNA, chemistry not fully specified
B17: cr320 (nucleic acid)
guide: B1 guide with A32T, G34T, A61T, A65G, T68A
modifications: listed as DNA, chemistry not fully specified
B18: cr492 (nucleic acid)
guide: B1 guide with G34T, A55C, A61T, T68A
modifications: listed as DNA, chemistry not fully specified
B19: cr745 (nucleic acid)
guide: B1 guide with G34T, G43A, A61T, T68A
modifications: listed as DNA, chemistry not fully specified
B20: cr080 (nucleic acid)
guide: B1 guide with G1T, A5T, G34T, A61T, T68A
modifications: listed as DNA, chemistry not fully specified
B21: cr386 (nucleic acid)
guide: B1 guide with A61C, T68G
modifications: listed as DNA, chemistry not fully specified
B22: cr410 (nucleic acid)
guide: B1 guide with G34T, A59G, A61T, A65G, T68A, T70C
modifications: listed as DNA, chemistry not fully specified
B23: cr581 (nucleic acid)
guide: B1 guide with G34T, A37T, A61T, T68A
modifications: listed as DNA, chemistry not fully specified
B24: cr952 (nucleic acid)
guide: B1 guide with A31T, G34T, T49G, T54A, A61T, T68A
modifications: listed as DNA, chemistry not fully specified
B25: cr032 (nucleic acid)
guide: B1 guide with T2A, A5G, G34T, A61T, T68A
modifications: listed as DNA, chemistry not fully specified
B26: cr542 (nucleic acid)
guide: B1 guide with G34A, T54C, A58G, A61T, T68A
modifications: listed as DNA, chemistry not fully specified
B27: cr737 (nucleic acid)
guide: B1 guide with G34T, A61T, T68A, C75G, C76G, G77C, A78T, C81G, G83C
modifications: listed as DNA, chemistry not fully specified
B28: cr547 (nucleic acid)
guide: B1 guide with G34T, A41G, A61T, T68A, G79A
modifications: listed as DNA, chemistry not fully specified
B29: cr454 (nucleic acid)
guide: B1 guide with G34T, G43T, C51A, A59C, A61T, T68A, T70G, C73T, G85A
modifications: listed as DNA, chemistry not fully specified
B30: cr935 (nucleic acid)
guide: B1 guide with G34T, A41G, A61T, A65C, T68A
modifications: listed as DNA, chemistry not fully specified

What follows are molecules tested on K562 CRISPRi cells (assay: Constant region variant library pooled growth screen, K562). Details: sgRNA constant region variant; activity relative to unmodified constant region cr995; mean CRISPRi activity.
Assay type: cell-based, human
Summary of the method: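 Cells were selected with puromycin for 2 days and then kept in RPMI-1640 spinner cultures, with duplicates handled separately. Targeting sequences comprised 3 sgRNAs per essential gene for 10 genes plus six non-targeting controls. Activities were normalized against pairing with the unmodified scaffold.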

| Molecule | Mean relative activity |
| --- | --- |
| B1 | 0.02069 |
| B2 | 0.02078 |
| B3 | 0.02086 |
| B4 | 0.02073 |

Same assay, conditions: sgRNA constant region variants; activity relative to the original, un-modified constant region cr995

| Molecule | Mean relative activity |
| --- | --- |
| B5 | 0.0267 |
| B6 | 0.02089 |
| B7 | 0.02327 |
| B8 | 0.0249 |
| B9 | 0.02666 |
| B10 | 0.02103 |
| B11 | 1.088 |
| B12 | 0.02445 |
| B13 | 0.0258 |
| B14 | 0.0237 |
| B15 | 0.0245 |
| B16 | 0.0224 |
| B17 | 1.035 |
| B18 | 1.034 |
| B19 | 0.02631 |
| B20 | 0.02323 |
| B21 | 0.02428 |
| B22 | 1.034 |
| B23 | 0.02488 |
| B24 | 0.02621 |
| B25 | 0.02646 |
| B26 | 0.02115 |
| B27 | 0.02539 |
| B28 | 0.02194 |
| B29 | 0.02618 |
| B30 | 0.02413 |
